Source: publication PMC5882710, “Amphotericin B-conjugated polypeptide hydrogels as a novel innovative strategy for fungal infections” (Royal Society Open Science, 2018)
Values after ≈ are worked out from the molar mass of the structure shown. Where two headings read alike, the source gives them in different places.

Tests used:
Candida albicans [1] = assay: microbe, parasite or virus in culture; assay type: cell-based
Procedure: (§1) The minimum inhibitory concentration (MIC) of the Dex, AmB, Nap-FFDKY, Npx-FFDKY, Fmoc-FFDKY, Nap-AmB, Npx-AmB and Dex-AmB hydrogels was determined by a serial 2-fold dilution of test samples. Fourteen different concentrations of drugs and hydrogels were prepared in DMF solution. One millilitre of the fungal strain […] colony-forming unit (CFU)/tube was inoculated into each tube containing different concentrations (1 ml) of test samples and incubated at 28°C (200 rpm) for 24 h. The MIC was defined as the minimum concentration of the sample inhibiting the visible growth of the microorganism. The experiment was repeated at least three times. Based on the values of MIC, 0.1 ml of the fungal strain containing different concentrations of test samples which inhibited the visible growth of the microorganism was subcultivated on the Sabouraud's dextrose agar plates, and incubated at 28°C for 48 h. The minimum bactericidal concentration (MBC) determination was defined as the minimum concentration of the sample sterilizing the visible growth of the microorganism (lower than 5 CFU/plate). The experiment was repeated at least three times. Based on the values of MIC, the fungal strain containing 1 × MIC and 2 × MIC concentrations of test samples was incubated at 28°C. A test suspension containing 0.1 ml was taken out and used to evaluate fungus colonies at 0, 1, 2, 4, 6, 8, 12 and 24 h.

[2] = low bioavailability; cited from earlier work
From the text: Invasive fungal infection has a significant influence on animal and plant life, which is a major cause of mortality that kills approximately 1.5 million people every year. Amphotericin B (AmB) is a broad-spectrum antifungal macrolide polyene antibiotic. Its antifungal effect is exerted by forming complexes with membrane sterols to allow the increase in the permeability of the fungal membrane. AmB is the most common antifungal agent used in clinical practice despite strong side-effects with low solubility and low bioavailability (less than 0.9%). Many researchers attempt ...

Candida albicans [3] = assay: Time-kill curves at 1 x MIC and 2 x MIC; assay type: cell-based; details: C. albicans, 28°C, n = 3; for time for which antifungal activity is exhibited in time-kill curves: sampled 0, 1, 2, 4, 6, 8, 12 and 24 h
Procedure: as §1

[4] = Hydrogel formation (gelation time, minimum gel concentration); assay type: physicochemical; details: for minimum gel concentration needed for gelation: PBS solutions at 37°C; for gelation time: room temperature, PBS pH 7.4, 2 equiv. Na2CO3
Procedure: General procedure for the formation of hydrogels: all the compounds dissolved in phosphate-buffered saline (PBS, pH 7.4). 2 equiv. of Na2CO3 (0.1 mol l^−1) were used to neutralize the carboxyl groups (─COOH) of compounds and adjust the pH to neutral. Then the hydrogels were formed at room temperature (22–25°C) or 37°C within 30 min.

[5] = In vitro drug release of AmB or Dex from hydrogels; assay type: physicochemical; details: for final drug release percentage of AmB after 12 h: 0.3 ml PBS pH 7.4 containing trypsin 1 µg ml^−1, 37°C, HPLC-UV 383 nm; for final drug release percentage of AmB after 12 h / final drug release percentage of Dex after 12 h: n = 3; for final drug release percentage of Dex after 12 h / constant release rate of AmB / constant release rate of Dex: PBS pH 7.4 with trypsin 1 µg ml^−1, 37°C; for final drug release percentage of Dex after 12 h: HPLC-UV 240 nm; for constant release rate of AmB / constant release rate of Dex: entire measurement period (12 h); for diffusion exponent n of AmB release (Mt/M∞ = k·t^n) / diffusion exponent n of Dex release (Mt/M∞ = k·t^n) / rate constant k of AmB release (Mt/M∞ = k·t^n) / rate constant k of Dex release (Mt/M∞ = k·t^n): fit of release data, PBS pH 7.4, 37°C
Procedure: The 2.0 wt%, 3.0 wt% and 4.0 wt% of Nap-AmB, Npx-AmB and Dex-AmB hydrogels within the 0.3 ml PBS solution containing trypsin (1 µg ml^−1) were prepared for drug release study. A quantity of 0.2 ml of the upper buffer solution was taken out and used to run HPLC at every 30 min and 0.2 ml of fresh PBS buffer solution containing trypsin (1 µg ml^−1) was added back each time. The experiments were conducted at 37°C. The areas of peaks in HPLC spectra were used to determine the percentage of AmB or Dex released from their corresponding hydrogels. The liquid chromatography system (Agilent 1200 series, America) comprised Degasser G1322A, Quaternary pump G1312B, Thermostated auto sampler HiP-ALS G1367C, column oven G1316A and ultraviolet detector G1314A. Separation was achieved using a SepaxGP-C18 reversed-phase column (250 mm × 4.6 mm internal diameter, 5 µm particle size) (America). The mobile phase of AmB analysis was acetonitrile-water (43 : 57, containing 0.05% TFA) at a flow-rate of 1 ml min^−1. Chromatography was carried out at 30°C and the detector wavelengths were set at 383 nm. The mobile phase of Dex analysis was acetonitrile-water (45 : 55, containing 0.05% TFA) at a flow rate of 1 ml min^−1. Chromatography was carried out at 30°C and the detector wavelengths were set at 240 nm. The experiment was conducted in three parallel experiments. […] Mt/M∞ is the fractional drug release, Mt is the amount of drug released at time t, M∞ is the maximum amount of drug released at time ∞, t is the release time, k is a rate constant of kinetic release and n is the diffusion exponent, characteristic of the drug release mechanism.

[6] = Solubility of hydrogelators in aqueous solutions; details: water, PBS solutions (pH = 7.4) and culture solutions

Row | SMILES | time for which antifungal activity is exhibited in time-kill curves (Candida albicans [3]) [h] | minimum gel concentration needed for gelation [4] | gelation time [4] | MIC (Candida albicans [1]; 24 h) [µg/mL] | MBC (Candida albicans [1]; 48 h) [µg/mL] | speed of fungistatic effect in time-kill curves (in words) (Candida albicans [3]) | final drug release percentage of AmB after 12 h ([5]; 2.0 wt% hydrogel) [%] | constant release rate of AmB ([5]; 2.0 wt% hydrogel) | diffusion exponent n of AmB release (Mt/M∞ = k·t^n) ([5]; 2.0 wt% hydrogel) | rate constant k of AmB release (Mt/M∞ = k·t^n) ([5]; 2.0 wt% hydrogel) | final drug release percentage of AmB after 12 h ([5]; 3.0 wt% hydrogel) [%] | constant release rate of AmB ([5]; 3.0 wt% hydrogel) [mg ml^−1 per hour] | diffusion exponent n of AmB release (Mt/M∞ = k·t^n) ([5]; 3.0 wt% hydrogel) | rate constant k of AmB release (Mt/M∞ = k·t^n) ([5]; 3.0 wt% hydrogel) | final drug release percentage of AmB after 12 h ([5]; 4.0 wt% hydrogel) [%] | constant release rate of AmB ([5]; 4.0 wt% hydrogel) [mg ml^−1 per hour] | diffusion exponent n of AmB release (Mt/M∞ = k·t^n) ([5]; 4.0 wt% hydrogel) | rate constant k of AmB release (Mt/M∞ = k·t^n) ([5]; 4.0 wt% hydrogel) | solubility in aqueous solutions (in words) [6] | also measured
1 | C[C@@H]1[C@H](O)[C@@H](C)/C=C/C=C/C=C/C=C/C=C/C=C/C=C/[C@H](O[C@@H]2O[C@H](C)[C@@H](O)[C@H](N)[C@@H]2O)C[C@@H]2O[C@](O)(C[C@@H](O)C[C@@H](O)[C@H](O)CC[C@@H](O)C[C@@H](O)CC(=O)O[C@H]1C)C[C@H](O)[C@H]2C(=O)O [AmB, Amphotericin B] | 2 | – | – | – | – | – | – | – | – | – | – | – | – | – | – | – | – | – | – | MBC (Candida albicans [1]; Candida albicans, C. albicans, 0.1 ml subcultivated on Sabouraud's dextrose agar, 28°C, 48 h, lower than 5 CFU/plate, repeated at least three times, read-out: MBC): 130 µg/mL (≈ 141 µM); MIC (Candida albicans [1]; Candida albicans, C. albicans, serial 2-fold dilution, 14 concentrations prepared in DMF, 1 ml fungal strain 10^18 CFU/tube, 28°C, 200 rpm, 24 h, visible growth, repeated at least three times, read-out: MIC): 4.06 µg/mL (≈ 4.39 µM); MBC (Candida albicans [1]; Candida albicans, supplement Fig. S21, read-out: MBC): 130 µg/mL (≈ 141 µM); MIC (Candida albicans [1]; Candida albicans, supplement Fig. S21, read-out: MIC): 4.06 µg/mL (≈ 4.39 µM); bioavailability [2]: less than 0.9%
2 | C[C@@H]1C[C@H]2[C@@H]3CCC4=CC(=O)C=C[C@]4(C)[C@@]3(F)[C@@H](O)C[C@]2(C)[C@@]1(O)C(=O)CO [Dex, dexamethasone] | – | – | – | – | – | – | – | – | – | – | – | – | – | – | – | – | – | – | – | antifungal effect against C. albicans (in words) (Candida albicans [1]; MIC/MBC test, serial 2-fold dilution, 28°C, 24 h): less antifungal effective
3 | C[C@@H]1[C@H](O)[C@@H](C)/C=C/C=C/C=C/C=C/C=C/C=C/C=C/[C@H](O[C@@H]2O[C@H](C)[C@@H](O)[C@H](N)[C@@H]2O)C[C@@H]2O[C@](O)(C[C@@H](O)C[C@@H](O)[C@H](O)CC[C@@H](O)C[C@@H](O)CC(=O)O[C@H]1C)C[C@H](O)[C@H]2C(=O)NCCCC[C@H](NC(=O)[C@H](CC(=O)O)NC(=O)[C@H](Cc1ccccc1)NC(=O)[C@H](Cc1ccccc1)NC(=O)CCC(=O)OCC(=O)[C@@]1(O)[C@H](C)C[C@H]2[C@@H]3CCC4=CC(=O)C=C[C@]4(C)[C@@]3(F)[C@@H](O)C[C@@]21C)C(=O)N[C@@H](Cc1ccc(O)cc1)C(=O)O [Dex-AmB] | 2 | ~2.0 wt% | approximately 30 min | 40.1 (≈ 19.1 µM) | 643 (≈ 306 µM) | exert fungistatic effect more quickly than AmB and Nap-AmB hydrogels | 16.3 | about 0.1123 mg ml^−1 per hour | 0.8265 | about 0.2283 | 19.2 | ~0.1994 | 0.6474 | ~0.3669 | 24.4 | ~0.3517 | 0.7971 | ~0.6436 | highly soluble | final drug release percentage of Dex after 12 h ([5]; 2.0 wt% hydrogel): 28.5%; constant release rate of Dex ([5]; 2.0 wt% hydrogel): about 0.08359 mg ml^−1 per hour; diffusion exponent n of Dex release (Mt/M∞ = k·t^n) ([5]; 2.0 wt% hydrogel): 0.4404; rate constant k of Dex release (Mt/M∞ = k·t^n) ([5]; 2.0 wt% hydrogel): approximately 0.1211; final drug release percentage of Dex after 12 h ([5]; 3.0 wt% hydrogel): 39.6%; constant release rate of Dex ([5]; 3.0 wt% hydrogel): ~0.1743 mg ml^−1 per hour; diffusion exponent n of Dex release (Mt/M∞ = k·t^n) ([5]; 3.0 wt% hydrogel): 0.3576; rate constant k of Dex release (Mt/M∞ = k·t^n) ([5]; 3.0 wt% hydrogel): ~0.3039; final drug release percentage of Dex after 12 h ([5]; 4.0 wt% hydrogel): 46.8%; constant release rate of Dex ([5]; 4.0 wt% hydrogel): ~0.2867 mg ml^−1 per hour; diffusion exponent n of Dex release (Mt/M∞ = k·t^n) ([5]; 4.0 wt% hydrogel): 0.2587; rate constant k of Dex release (Mt/M∞ = k·t^n) ([5]; 4.0 wt% hydrogel): ~0.6024
4 | C[C@@H]1[C@H](O)[C@@H](C)/C=C/C=C/C=C/C=C/C=C/C=C/C=C/[C@H](O[C@@H]2O[C@H](C)[C@@H](O)[C@H](N)[C@@H]2O)C[C@@H]2O[C@](O)(C[C@@H](O)C[C@@H](O)[C@H](O)CC[C@@H](O)C[C@@H](O)CC(=O)O[C@H]1C)C[C@H](O)[C@H]2C(=O)NCCCC[C@H](NC(=O)[C@H](CC(=O)O)NC(=O)[C@H](Cc1ccccc1)NC(=O)[C@H](Cc1ccccc1)NC(=O)Cc1ccc2ccccc2c1)C(=O)N[C@@H](Cc1ccc(O)cc1)C(=O)O [Nap-AmB] | 2 | about 0.5 wt% | 3 min | – | – | – | 36.3 | about 0.3188 mg ml^−1 per hour | 0.6874 | approximately 0.2503 | 47.3 | ~0.6114 | 0.5722 | ~0.4662 | 62.1 | ~1.015 | 0.5481 | ~0.6379 | highly soluble | –
5 | COc1ccc2cc([C@H](C)C(=O)N[C@@H](Cc3ccccc3)C(=O)N[C@@H](Cc3ccccc3)C(=O)N[C@@H](CC(=O)O)C(=O)N[C@@H](CCCCNC(=O)[C@H]3[C@@H]4C[C@@H](O[C@@H]5O[C@H](C)[C@@H](O)[C@H](N)[C@@H]5O)/C=C/C=C/C=C/C=C/C=C/C=C/C=C/[C@H](C)[C@@H](O)[C@@H](C)[C@H](C)OC(=O)C[C@H](O)C[C@H](O)CC[C@@H](O)[C@H](O)C[C@H](O)C[C@](O)(C[C@@H]3O)O4)C(=O)N[C@@H](Cc3ccc(O)cc3)C(=O)O)ccc2c1 [Npx-AmB] | 2 | ~1.0 wt% | 10 min | 43.7 (≈ 23.8 µM) | 349 (≈ 190 µM) | exert fungistatic effect more quickly than AmB and Nap-AmB hydrogels | 30.0 | about 0.2406 mg ml^−1 per hour | 0.7428 | approximately 0.2846 | 38.9 | ~0.4837 | 0.7784 | ~0.3358 | 51.3 | ~0.8332 | 0.7771 | ~0.4387 | – | –
